Biological target: Flag-tagged wild-type GAPDH (human) (UniProt P04406)
Assay: native gel or EMSA; lysates of stable PANC-1 lines (GFP/wild-type GAPDH, GFP-PRMT3/wild-type GAPDH, GFP-PRMT3/R248K-GAPDH) on 10% native gel; tetrameric form

Flag-tagged wild-type GAPDH, P04406 1-335 (enzyme; other documents disagree on this pair), sequence (P04406 whole entry): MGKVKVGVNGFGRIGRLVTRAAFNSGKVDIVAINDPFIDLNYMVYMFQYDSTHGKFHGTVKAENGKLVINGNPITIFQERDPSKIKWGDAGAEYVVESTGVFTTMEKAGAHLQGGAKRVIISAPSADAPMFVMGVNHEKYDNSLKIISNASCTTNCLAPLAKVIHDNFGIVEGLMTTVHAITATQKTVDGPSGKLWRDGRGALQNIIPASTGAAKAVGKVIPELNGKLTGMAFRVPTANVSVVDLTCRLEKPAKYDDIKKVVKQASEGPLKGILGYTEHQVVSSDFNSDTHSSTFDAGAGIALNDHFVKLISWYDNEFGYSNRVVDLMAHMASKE

stoichiometry N: 4
Substance: Flag-tagged wild-type GAPDH, P04406 1-335 (enzyme; other documents disagree on this pair)

Reference: PMC6642535
